One experiment has as its target RAB-GDI1 (UniProt P31150). Description: GFP-Trap co-IP, RAB-GDI1 blot. As to conditions: reference: wild type; sites T86.
Experiment [1] concerns the target MADD (DENN/MADD, RAB3-GEP) (UniProt Q8WXG6). Nature of the experiment: GFP-Trap co-IP, HA blot. To be noted: reference: wild type; sites T86.

RAB3A (from UniProt P20336) T86A: the “binding against the reference” value (in the experiment with RAB-GDI1; in experiment [1]) was “stronger” throughout.

Source of the values: paper doi:10.1101/2023.07.25.550521.
